Target: target antigen of trastuzumab on the target cells (UniProt P04626)
Experiment: flow cytometry on cells

B1: meditope-enabled trastuzumab (antibody, V domains shown)
VH: not shown
VL: DIQMTQSPILLSASVGDRVTITCRASQDVNTAVAWYQQRTNGSPRLLIYSASFLYSGVPSRFSGSRSGTDFTLTISSLQPEDIADYYCQQHYTTPPTFGAGTKVEIK
binding result: binds
